To fix the notation:
B1: thermophilin 1: first bacteriocin from S. thermophilus CNCM I-1351, sequence SEQ ID NO: 1, found in fraction 15 (protein)
chain: YSGKDCLKDMGGYALAGAGSGALWGAPAGGVGALPGAFVGAHVGAIAGGFACMGGMIGNKFN

One experiment has as its target standard crude extract of bacteriocin from the culture supernatant of S. thermophilus CNCM I-1351.
Assay: not given
Settings: not given
In the case of Catalase (SIGMA C-10) (enzyme), the Inactivation (mm): diameter of the inhibition halo in the agar well test after incubation with the enzyme is 14 mm.
Still for that read-out and setting: under Ficin (SIGMA P-3266) (enzyme) stands 0 mm; under “Lipase (SIGMA L-0382) + protease inhibitors (enzyme)”, 14 mm.
With Nagarse (SIGMA P-4789) (enzyme), the Inactivation (mm): diameter of the inhibition halo in the agar well test after incubation with the enzyme turned out to be 0 mm.
The molecule Pepsin (SIGMA P-700) (enzyme) came in with an Inactivation (mm): diameter of the inhibition halo in the agar well test after incubation with the enzyme of 0 mm.
For the molecule Pronase E (SIGMA P-8038) (enzyme), the Inactivation (mm): diameter of the inhibition halo in the agar well test after incubation with the enzyme amounted to 0 mm.
In turn, “Proteinase K (MERCK 1000 144) (from UniProt P06873) (enzyme)” showed an Inactivation (mm): diameter of the inhibition halo in the agar well test after incubation with the enzyme of 0 mm.
The same measure, in the same setting: to Trypsin (SIGMA T-8128) (enzyme) belongs 0 mm.
The same measure, in the same setting: under α-amylase (SIGMA λ-0521) (enzyme) stands 14 mm; under α-chymotrypsin (SIGMA C-7762) (enzyme), 0 mm.

A further experiment relates to S. thermophilus strain Sfi3 (typical indicator). In words: Agar well test, antibacterial activity in arbitrary units. In kind it is cell-based, Streptococcus thermophilus. As to conditions: Pep RPC fractions 15 and 21. How it is done:
In order to do this, 35 ml of M 17 medium are poured into a Petri dish and 1% sucrose and 1.5% agar are added thereto.
5 ml of M 17 medium to which 1% sucrose and 0.75% agar are added are inoculated with 5 μl of a culture, prepared during the previous night, of a strain of S. thermophilus which is typically sensitive to the present bacteriocin (typical indicator), in this case the strain Sfi3 for example.
The 5 ml are poured over the 35 ml and left to dry for 15 min under a laminar flow. Holes of 5 mm in diameter are punched in the culture medium.
The test samples are poured into the holes, in an amount of 70 μl per hole. The incubation is carried out for 6 h under anaerobic conditions at 42° C. During this incubation, the typical indicator strain has grown and inhibition halos are visible.
Take “thermophilin 2: second bacteriocin from S. thermophilus CNCM I-1351, sequence SEQ ID NO: 2, predominant in fraction 21 (QINWGSVVGHCIGGAIIGGAFSGGAAAGVGCLVGSGKAIINGL)”: the “antibacterial activity of purified peptide fractions” value is on record as “antibacterial activity”.
For the molecule B1, the “antibacterial activity of purified peptide fractions” value is “antibacterial activity”.

The record behind these values is patent publication US5683890A, “Bacteriocins from Streptococcus thermophilus” (Nestec S.A., priority 1993, dated 1997).
